Square brackets hold non-standard residues; d marks the D form. dPhe(4-F) = N[C@H](Cc1ccc(F)cc1)C(=O)O

The target in one test is T1, Aβ1-40 peptide (natural β-amyloid peptide, β-AP1-40) (In the fibril binding assay the peptide stood as aged fibrils (many copies, number not stated). In the nucleation assay [CUT]). The test can be described thus: cell-based or functional assay.
Turning to H-[dL][dF][dPhe(4-F)][dV][dL]-NH2 (also: TFA salt) [PPI-1319: TFA·H-(lf-[p-F]f-vl)-NH2], the “Nucleation assay data (Δlag), 0.3 µM compound” value was 1 fold of control lag time; the “Nucleation assay data (Δlag), 1 µM compound” value was > 5 fold of control lag time; the “Nucleation assay data (Δlag), 3 µM compound” value is > 5 fold of control lag time.
As for H-[dL][dF][dK][dV][dL]-NH2 (also: TFA salt) [PPI 1321: 2TFA·H-(lfkvl)-NH2], the “Nucleation assay data (Δlag), 0.3 µM compound” value is < 1 fold of control lag time; the “Nucleation assay data (Δlag), 1 µM compound” value was < 1 fold of control lag time; the “Nucleation assay data (Δlag), 3 µM compound” value was < 1 fold of control lag time.

The target in the next test is T1, Aβ1-40 peptide (natural β-amyloid …). The test is described as follows: cell-based or functional assay. This is another data set of the same source.
For the molecule {N,N‑diethyl}-G[dA][dF][dF][dV][dL]-NH2 (also: TFA salt) [PPI 1005: TFA·N,N-diethyl-(Gaffvl)-NH2], the “Nucleation assay Δlag, 1.25 µM compound” value was 1 fold of control lag time; the “Nucleation assay Δlag, 2.5 µM compound” value was 3 fold of control lag time; the “Nucleation assay Δlag, 5 µM compound” value was 3 fold of control lag time.
With {N,N‑dimethyl}-G[dA][dF][dF][dV][dL]-NH2 (also: TFA salt) [PPI 803: TFA·N,N-dimethyl-(Gaffvl)-NH2], the “Nucleation assay Δlag, 1.25 µM compound” value was < 1 fold of control lag time; the “Nucleation assay Δlag, 2.5 µM compound” value is < 1 fold of control lag time; the “Nucleation assay Δlag, 5 µM compound” value was < 1 fold of control lag time.
{N‑methyl}-G[dA][dF][dF][dV][dL]-NH2 (also: TFA salt) [PPI 968: TFA·N-methyl-(Gaffvl)-NH2]: the “Nucleation assay Δlag, 1.25 µM compound” value was 2 fold of control lag time; the “Nucleation assay Δlag, 2.5 µM compound” value was > 5 fold of control lag time; the “Nucleation assay Δlag, 5 µM compound” value is > 5 fold of control lag time.
On to {N‑isopropyl}-G[dA][dF][dF][dV][dL]-NH2 (also: TFA salt) [PPI 970: TFA·N-isopropyl-(Gaffvl)-NH2], for which the “Nucleation assay Δlag, 1.25 µM compound” value is 1 fold of control lag time; the “Nucleation assay Δlag, 2.5 µM compound” value was > 5 fold of control lag time; the “Nucleation assay Δlag, 5 µM compound” value is > 5 fold of control lag time.
Regarding {N,N‑dimethyl}-[dA][dF][dF][dV][dL]-NH2 (also: TFA salt) [PPI 913: TFA·N,N-dimethyl-(affvl)-NH2], the “Nucleation assay Δlag, 1.25 µM compound” value is 1 fold of control lag time; the “Nucleation assay Δlag, 2.5 µM compound” value was 1 fold of control lag time; the “Nucleation assay Δlag, 5 µM compound” value was 1 fold of control lag time.
In the case of H-[dL][dV][dF][dF][dA]-NMe2 (also: TFA salt) [PPI 993: TFA·H-(lvffa)-dimethylamide], the “Nucleation assay Δlag, 1.25 µM compound” value is 1 fold of control lag time; the “Nucleation assay Δlag, 2.5 µM compound” value was 1 fold of control lag time; the “Nucleation assay Δlag, 5 µM compound” value is 1 fold of control lag time.
Regarding {N,N‑diethyl}-[dA][dF][dF][dV][dL]-NH2 (also: TFA salt) [PPI 1006: TFA·N,N-diethyl-(affvl)-NH,], the “Nucleation assay Δlag, 1.25 µM compound” value was 1 fold of control lag time; the “Nucleation assay Δlag, 2.5 µM compound” value was 1 fold of control lag time; the “Nucleation assay Δlag, 5 µM compound” value is 1 fold of control lag time.
